The source of these data is article doi:10.1101/2022.10.13.512040 (bioRxiv, 2022).

The series “cryo-EM structure” concerns the molecule itself. Nature of the series: cryo-EM structure.
Series [1] addresses Arabidopsis thaliana PIN1 (PIN-FORMED 1 auxin transporter) (Arabidopsis thaliana, UniProt Q9C6B8). Nature of the series: cryo-EM structure.

B1: Arabidopsis thaliana PIN1 (PIN-FORMED 1 auxin transporter) (natural protein)
chain: MITAADFYHVMTAMVPLYVAMILAYGSVKWWKIFTPDQCSGINRFVALFAVPLLSFHFIAANNPYAMNLRFLAADSLQKVIVLSLLFLWCKLSRNGSLDWTITLFSLSTLPNTLVMGIPLLKGMYGNFSGDLMVQIVVLQCIIWYTLMLFLFEYRGAKLLISEQFPDTAGSIVSIHVDSDIMSLDGRQPLETEAEIKEDGKLHVTVRRSNASRSDIYSRRSQGLSATPRPSNLTNAEIYSLQSSRNPTPRGSSFNHTDFYSMMASGGGRNSNFGPGEAVFGSKGPTPRPSNYEEDGGPAKPTAAGTAAGAGRFHYQSGGSGGGGGAHYPAPNPGMFSPNTGGGGGTAAKGNAPVVGGKRQDGNGRDLHMFVWSSSASPVSDVFGGGGGNHHADYSTATNDHQKDVKISVPQGNSNDNQYVEREEFSFGNKDDDSKVLATDGGNNISNKTTQAKVMPPTSVMTRLILIMVWRKLIRNPNSYSSLFGITWSLISFKWNIEMPALIAKSISILSDAGLGMAMFSLGLFMALNPRIIACGNRRAAFAAAMRFVVGPAVMLVASYAVGLRGVLLHVAIIQAALPQGIVPFVFAKEYNVHPDILSTAVIFGMLIALPITLLYYILLGL
For the molecule B1, the binding result in “cryo-EM structure” was “binds”.

B2: sybody-21 (VHH)
VHH: QVQLVESGGGLVQAGGSLRLSCAASGFPVNISWMEWYRQVPGKEREWVAAIQSTGSYTWYADSVKGRFTISRDNAKNTVYLQMNSLKPEDTAVYYCRVKVGAYYRGQGTQVTVSA
On to B2, for which the binding result in series [1] was “binds”.
